{"source": "paper PMC12186257", "about": "“Serendipitous and Systematic Chemoproteomic Discovery of MBLAC2, HINT1, and NME1‑4 Inhibitors from Histone Deacetylase-Targeting Pharmacophores” (ACS Chemical Biology, 2025)", "proteins": {"B1": {"name": "recombinant HINT1 (hHint1) (Homo sapiens) (protein)", "chain": "MADEIAKAQVARPGGDTIFGKIIRKEIPAKIIFEDDRCLAFHDISPQAPTHFLVIPKKHISQISVAEDDDESLLGHLMIVGKKCAADLGLNKGYRMVVNEGSDGGQSVYHVHLHVLGGRQMHWPPG"}}, "substrate": "Nc1ncnc2c1ncn2[C@@H]1O[C@H](COP(=O)(O)NCCc2c[nH]c3ccccc23)[C@@H](O)[C@H]1O", "test": "HINT1 enzyme activity assay (TrpA hydrolysis, fluorescence)", "type": "biochemical, human", "conditions": "other: substrate of hHint1", "excerpt": "While the biologically relevant substrates of HINT1 have not been clearly elucidated, the protein has been implicated in opioid receptor signaling, − regulation of the melanoma-associated transcription factor MITF, , and DNA damage repair. These functions position HINT1 as a potential pharmacological target for treating conditions such as opioid resistance or melanoma. The only reported HINT1-targeting pharmacophores are nucleoside-based nonhydrolyzable substrate analogs, such as the carbamate TrpGC (Figure a). , We evaluated the inhibitory potential of KV-24 and KV-30 in enzyme activity assays using recombinant HINT1. […]\nMouse brain proteomics – LC-MS/MS. […] 10 µg of peptide mix was injected and analyzed using a 58 min gradient starting at 1% B up to 45% B (1 h method). […]\nMouse proteomics data analysis. The data files were analyzed with DIA-NN 1.8.1. […] The resulting protein group tables were further analyzed by Perseus 1.6.2.2. […]\nCME of transferrin and confocal microscopy analyses.For transferrin uptake experiments HeLa cells were seeded on Matrigel-coated coverslips, and incubated with 0.1 % DMSO, or with 100 µM dynasore, 20 µM KV50, 2 µM KV65, or 2 µM KV79 in media containing 10% FCS at 37°C for 20 h. […] All inhibitor treatments were performed in duplicate, to enable quantification of surface levels of transferrin receptors, and to assess the capability of transferrin receptor endocytosis. […]"}
{"protein": "B1", "values": [{"measurement": "Km", "value": 0.139, "unit": "µM"}]}
